Experimental data as given in the supplement of paper PMC12764529.
± gives the half width of the 95% confidence interval.

Legend:
[1] = folding stability dG unfold from trypsin proteolysis; higher = more stable
Method in brief: (§1)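 Unfolding free energy was derived, per protease or combined, against a sequence-predicted unfolded-state K50 and a shared folded-state K50, starting from K50 inferred by Bayesian fitting of sequencing counts. Digestion with trypsin and chymotrypsin was carried out on designed mini-proteins under 80 residues without cysteine in a PA-tagged cDNA display construct. Only designs with AlphaFold2 dimer inter-PAE above 15 were kept.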

[2] = folding stability dG unfold from chymotrypsin proteolysis; higher = more stable
Method in brief: as §1

[3] = folding stability dG unfold (combined trypsin and chymotrypsin); higher = more stable
Method in brief: as §1

Which “folding stability dG unfold” value [1] does the source give for “SAGGSAGGMKTITIELPPGPVRIRVRLAATGEEVTVEVDAETPTVTITIPEEGAEIVEIEIEPVSAGGSAGG [r6_977_TrROS_Hall]” here?
The value was 2.06 ± 0.065 kcal/mol.

What about the “folding stability dG unfold” value [2] of the same sequence?
Its value is 2.66 ± 0.13 kcal/mol.

What about the “folding stability dG unfold” value [3] of the same sequence?
The value was 2.59 ± 0.18 kcal/mol.

With “SAGGSAGGMKTTTYTFPGTLEEAKALAEELVAALPPHAKEVTVEVTPDPATGTVTVTITVKELASAGGSAGG [r6_164_JUSTAS]” as the sequence, how does the “folding stability dG unfold” value [1] read?
Its value is 3.17 ± 0.19 kcal/mol.

What about the “folding stability dG unfold” value [2] of the same sequence?
The value was 3.63 ± 0.064 kcal/mol.

And the “folding stability dG unfold” value [3]?
Its value is 3.46 ± 0.13 kcal/mol.

Which “folding stability dG unfold” value [1] does the source give for “SAGGSAGGMKTVTTPVYAVMPEEEAEALAKELEEKYPNVEIEVEREELPDGRVRVTITVTKPLGSAGGSAGG [r6_105_JUSTAS]” here?
Its value is 1.19 ± 0.022 kcal/mol.

And the “folding stability dG unfold” value [2]?
Its value is 1.55 ± 0.054 kcal/mol.

What about the “folding stability dG unfold” value [3] of the same sequence?
Its value is 1.4 ± 0.067 kcal/mol.

Which results are given for “SAGGSAGGMKVEVVFLVPGEVFSKFTPPLSEDDPVLLVLVFDVPAPPPVPRYVYDPETGEWRPESAGGSAGG [r6_211_TrMRF]”?
folding stability dG unfold [1]: 2.39 ± 0.047 kcal/mol; folding stability dG unfold [2]: 3.72 ± 0.099 kcal/mol; folding stability dG unfold [3]: 3.22 ± 0.11 kcal/mol

For “SAGGSAGGMKVIEIDLPDGSKLKIVIYKDGTLPAYLPEGNKVIVLEIDKNGKIKSVKVFDAKDISAGGSAGG [r6_81_TrMRF]”, which “folding stability dG unfold” value [1] is on record?
The value was 2.87 ± 0.16 kcal/mol.

What about the “folding stability dG unfold” value [2] of the same sequence?
The value was 3.52 ± 0.072 kcal/mol.

What about the “folding stability dG unfold” value [3] of the same sequence?
The value was 3.21 ± 0.25 kcal/mol.

What does the source list for “SAGGSAGGMKVKIKLGPGEEVEIEVVEDKETNKLYFKIVNKKTKKVYVFETLEEAKNMSLEELLSAGGSAGG [r6_739_TrROS_Hall]”?
folding stability dG unfold [1]: 1.78 ± 0.065 kcal/mol; folding stability dG unfold [2]: 3.73 ± 0.07 kcal/mol; folding stability dG unfold [3]: 3.22 ± 0.12 kcal/mol

With “SAGGSAGGMKVLATTEDGEVYLFDLSEFDLSFEEWLNLGEEELAELLRKAFPEKEITLELVEEPSAGGSAGG [r6_164_TrMRF]” as the sequence, how does the “folding stability dG unfold” value [1] read?
Its value is 2.5 ± 0.076 kcal/mol.

And the “folding stability dG unfold” value [2]?
Its value is 3.3 ± 0.047 kcal/mol.

And the “folding stability dG unfold” value [3]?
Its value is 3.02 ± 0.077 kcal/mol.

Which “folding stability dG unfold” value [1] does the source give for “SAGGSAGGMKVRVKIEVEGKTLEIEIEVPEEKREEALEKAKKLAEKLAEELDVEVKIVEVEEEPSAGGSAGG [r6_459_TrROS_Hall]” here?
Its value is 1.04 ± 0.034 kcal/mol.

What about the “folding stability dG unfold” value [2] of the same sequence?
The value was 2.41 ± 0.073 kcal/mol.

And the “folding stability dG unfold” value [3]?
Its value is 2.01 ± 0.12 kcal/mol.

Which “folding stability dG unfold” value [1] does the source give for “SAGGSAGGMKVYEIEVPPSSGLTPEEIRARVREEIEASNNAPVEVTVEVDPNGRLTVTIKITPLSAGGSAGG [r6_819_JUSTAS]” here?
The value was 1.83 ± 0.036 kcal/mol.

What about the “folding stability dG unfold” value [2] of the same sequence?
Its value is 1.28 ± 0.054 kcal/mol.

What about the “folding stability dG unfold” value [3] of the same sequence?
The value was 1.49 ± 0.13 kcal/mol.

For “SAGGSAGGMKYLDVVLHPDTGATYSSLEEIKASSSGPFQIKTGDGKWIYLPVEELSSLPTPLASSAGGSAGG [r6_685_JUSTAS]”, which “folding stability dG unfold” value [1] is on record?
Its value is 0.0571 ± 0.039 kcal/mol.

And the “folding stability dG unfold” value [2]?
Its value is 0.331 ± 0.048 kcal/mol.

What about the “folding stability dG unfold” value [3] of the same sequence?
The value was 0.247 ± 0.065 kcal/mol.

Which “folding stability dG unfold” value [1] does the source give for “SAGGSAGGMLLSSEEELEEELKRVREEGIGEVEVQVVDEKGNIHTLPTFVENPGPEPLPNEKLLSAGGSAGG [r6_258_JUSTAS]” here?
Its value is 0.558 ± 0.066 kcal/mol.

And the “folding stability dG unfold” value [2]?
Its value is 0.643 ± 0.049 kcal/mol.

What about the “folding stability dG unfold” value [3] of the same sequence?
Its value is 0.628 ± 0.13 kcal/mol.

For “SAGGSAGGMLRVRVETTLPGSGETLDLELEFPSEEEARRAIEALVPPEERAEVRVEFLPPGVPESAGGSAGG [r6_657_JUSTAS]”, which “folding stability dG unfold” value [1] is on record?
Its value is -0.156 ± 0.37 kcal/mol.

What about the “folding stability dG unfold” value [2] of the same sequence?
The value was 1.44 ± 0.08 kcal/mol.

What about the “folding stability dG unfold” value [3] of the same sequence?
Its value is 1.06 ± 0.1 kcal/mol.

For “SAGGSAGGMLTFTFSLSEIPPYPSGSLSLEEVKKRMEPILRKLLGRKDVKIKVESLPDGTIRVTVESAGGSA [r15_562_JUSTAS]”, which “folding stability dG unfold” value [1] is on record?
Its value is 3.95 ± 0.25 kcal/mol.

And the “folding stability dG unfold” value [2]?
Its value is 4.99 ± 0.23 kcal/mol.

And the “folding stability dG unfold” value [3]?
The value was 4.37 ± 0.27 kcal/mol.

For “SAGGSAGGMPAEWLDEIEAPPGNYRAELYKTEKEVRIIITLPNGEKLELTFEVKPDEEILVLPGSAGGSAGG [r6_379_TrMRF]”, which “folding stability dG unfold” value [1] is on record?
The value was 1.89 ± 0.057 kcal/mol.

What about the “folding stability dG unfold” value [2] of the same sequence?
Its value is 2.12 ± 0.17 kcal/mol.

What about the “folding stability dG unfold” value [3] of the same sequence?
The value was 2.05 ± 0.097 kcal/mol.

For “SAGGSAGGMPVEVTETPVGTFPDGSTVTRTETVLPGGEVLVETTVTYPDGSSTTTTRRVPPELASAGGSAGG [r6_263_JUSTAS]”, which “folding stability dG unfold” value [1] is on record?
Its value is 2.39 ± 0.084 kcal/mol.

What about the “folding stability dG unfold” value [2] of the same sequence?
The value was 2.41 ± 0.059 kcal/mol.

And the “folding stability dG unfold” value [3]?
Its value is 2.43 ± 0.092 kcal/mol.

With “SAGGSAGGMTAVEVKEETVPITLTSSFFPGGVPVPGAAVSTITITTTTTIEPPTGKTVKVTVAGSAGGSAGG [r6_424_JUSTAS]” as the sequence, how does the “folding stability dG unfold” value [1] read?
Its value is -0.318 ± 0.037 kcal/mol.

And the “folding stability dG unfold” value [2]?
Its value is -0.658 ± 0.12 kcal/mol.

And the “folding stability dG unfold” value [3]?
Its value is -0.423 ± 0.074 kcal/mol.

Which results are given for “SAGGSAGGMTFTIPPGKPVTIRVYNRNGELIEEVTVTGAGARIHVSEIPGTGELKITRIDEIPPSAGGSAGG [r6_523_TrMRF]”?
folding stability dG unfold [1]: 2.33 ± 0.049 kcal/mol; folding stability dG unfold [2]: 2.91 ± 0.071 kcal/mol; folding stability dG unfold [3]: 2.72 ± 0.087 kcal/mol

Which “folding stability dG unfold” value [1] does the source give for “SAGGSAGGMTLKIKVAPGAVIRIYNKDGELIEEIEVEEGEEVEIEIELPEEDLENLRIEILPAPSAGGSAGG [r6_471_TrROS_Hall]” here?
Its value is 3.96 ± 0.27 kcal/mol.

And the “folding stability dG unfold” value [2]?
The value was 4.6 ± 0.079 kcal/mol.

What about the “folding stability dG unfold” value [3] of the same sequence?
Its value is 4.42 ± 0.25 kcal/mol.

With “SAGGSAGGMTLTLELTLENGKKVRIEVEVNENGSLKVKITYPNGKKVEIEVNMSLEELLKKLLSSAGGSAGG [r6_808_TrROS_Hall]” as the sequence, how does the “folding stability dG unfold” value [1] read?
The value was 3.75 ± 0.26 kcal/mol.

And the “folding stability dG unfold” value [2]?
The value was 3.66 ± 0.14 kcal/mol.

And the “folding stability dG unfold” value [3]?
The value was 3.91 ± 0.29 kcal/mol.

With “SAGGSAGGMTTTEISTKKLPDGTWATTVTTTTITATNGVPVTTSTPTTIINPGDPSVAIAAALSSAGGSAGG [r6_129_JUSTAS]” as the sequence, how does the “folding stability dG unfold” value [1] read?
The value was 0.209 ± 0.013 kcal/mol.

What about the “folding stability dG unfold” value [2] of the same sequence?
The value was -1 ± 0.29 kcal/mol.

What about the “folding stability dG unfold” value [3] of the same sequence?
Its value is -0.173 ± 0.057 kcal/mol.

Which “folding stability dG unfold” value [1] does the source give for “SAGGSAGGMTVTTTSSFDPTSPTANTLTTTYVSPEELKRPEIQALPDLPGKTLEFPTTTPVPPPSAGGSAGG [r6_768_JUSTAS]” here?
The value was 0.679 ± 0.031 kcal/mol.

And the “folding stability dG unfold” value [2]?
Its value is 0.0452 ± 0.048 kcal/mol.

And the “folding stability dG unfold” value [3]?
The value was 0.431 ± 0.085 kcal/mol.

Which results are given for “SAGGSAGGMVETKLVESEELPGNRRVLTYRVTEPDSLYRVTVELTLDPSGTVLSSKTTTEPIPLSAGGSAGG [r6_20_JUSTAS]”?
folding stability dG unfold [1]: 0.846 ± 0.053 kcal/mol; folding stability dG unfold [2]: 1.12 ± 0.093 kcal/mol; folding stability dG unfold [3]: 1.04 ± 0.073 kcal/mol

For “SAGGSAGGMVIEGRIKIVSPDGGEKEIPVVLFIPESFPDANLEELAEAIAKEILPPGYKADFEGSAGGSAGG [r6_821_TrMRF]”, which “folding stability dG unfold” value [1] is on record?
Its value is 0.601 ± 0.065 kcal/mol.

What about the “folding stability dG unfold” value [2] of the same sequence?
The value was 1 ± 0.023 kcal/mol.

What about the “folding stability dG unfold” value [3] of the same sequence?
Its value is 0.879 ± 0.17 kcal/mol.

What does the source list for “SAGGSAGGMVIKIITNAPSLEEAEEIAKRVAAELRERFGGPDVEIVLDVEVIPLPPVPTEDGKPSAGGSAGG [r6_182_TrMRF]”?
folding stability dG unfold [1]: 1.38 ± 0.053 kcal/mol; folding stability dG unfold [2]: 1.97 ± 0.16 kcal/mol; folding stability dG unfold [3]: 1.82 ± 0.092 kcal/mol

Which “folding stability dG unfold” value [1] does the source give for “SAGGSAGGMVISLPNNYKIKLGITDAEFDEVKVYTGPNGPKKLVSGANIKLKIGISIYKSNDNSSAGGSAGG [r6_585_TrMRF]” here?
The value was 1.24 ± 0.036 kcal/mol.

What about the “folding stability dG unfold” value [2] of the same sequence?
Its value is 1.43 ± 0.19 kcal/mol.

And the “folding stability dG unfold” value [3]?
The value was 1.4 ± 0.17 kcal/mol.

For “SAGGSAGGMVKVSSDPATGKVYVTYPGADPEAVAEKVKKEYGAKKIKVEKDPNKDVTTITITVESAGGSAGG [r6_662_JUSTAS]”, which “folding stability dG unfold” value [1] is on record?
The value was -1.01 ± 0.45 kcal/mol.

What about the “folding stability dG unfold” value [2] of the same sequence?
Its value is 0.271 ± 0.14 kcal/mol.

And the “folding stability dG unfold” value [3]?
The value was -0.0511 ± 0.19 kcal/mol.
